Fewer inactive variants are shown than the library holds.
B1: TPR 5TU (parent)
chain: GGAUCUUCUCGAUCUAACAAAAAAGACAAAUCUGCCACAAAGCUUGAGAGCAUCUUCGGAUGCAGAGGCGGCAGCCUUCGGUGGCGCGAUAGCGCCAACGUUCUCAACUAUGACACGCAAAACGCGUGCUCCGUUGAAUGGAGUUUAUCAUG

Variants of: B1
Assay: polymerase ribozyme fitness, log enrichment relative to wild type (log ratio); higher = more active; in vitro selection for triplet polymerase activity
Summary of the method: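 Fitness is a logarithmic measure of how a genotype enriched relative to the wild type, with replicate averages weighted by inverse variance. The logarithm uses base 2, and enrichment came from Illumina sequencing of input and output libraries. Those libraries were PCR-built, transcribed mutants of each subunit of a heterodimeric triplet polymerase ribozyme, passed through one triplicate in vitro selection round that included frozen incubation at −7 °C, gel excision of extended constructs and streptavidin-bead capture. Genotypes were kept only if they had ≥10 input reads and ≥1 read per output.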

Row | Variant | polymerase ribozyme fitness (log ratio)
1 | GGAUCUUCUCGUUCUAACAAAAAAGACAAAUCUGCCACAAAGCUUGAGAGCAUCUUCGGAUGCAGAGGCGGCAGCCUUCGGUGGCGCGAUAGCGCCUACGUUCUCAACUAUGACACGCAAAACGCGUGCUCCGUUGAAUGGAGUUUAUCAUG [A12U A97U] | -0.954
2 | GGAUCUUCUCGUUCUAACAAAAAAGACAAAUCUGCCGCAAAGCUUGAGAGCAUCUUCGGAUGCAGAGGGGGCAGCCUUCGGUGGCGCGAUAGCGCCAACGUUCUCAACUAUGACACGCAAACCGCAUGCUCCGUUGAAUGGAGUUUAUCGUG [A12U A37G C69G A122C G126A A150G] | ≤ -4.2
3 | GGAUCUUCUCGUUCUAACAAAAAAGACCAAUCUGCCACAAAGCUUGAGAGCAUCUUUGGAUGCAGAGACGGCAGCCUUCGGUGGCGCGAUACCGCCAACGUUCUCAACUAUGACACGCAAAACGCUUGCUCCGUUGAAUGGAGUUUAUCAUG [A12U A28C C57U G68A G92C G126U] | ≤ -4.2
4 | GGAUCUUCUCGUUCUAACAAAAAAGACAAAUCUGUCACAAAGCUUGAGAGCAUCUUCGGAUGCAGAGGCGGCAGCCUUCGGUGGCGCGAUGGCGCCAACGUUCUCAACUAUGACACGCAAAACGCGUGCUCCGUUGAAUGGAGUUUAUCAUG [A12U C35U A91G] | -3.67
5 | GGAUCUUCUCGUUCUAACAAAAAAGACAAAUCUGACACAAAGCAUGAGAGCAUCUUCGGAUGCAGAGGCGGCAGCCUUCGGUGGCGCGAUACCGCCAACGUUCUCAACUAUGACACGCAAAACGCGAGGUCCGUUGAAUGGAAUUUAUCACG [A12U C35A U44A G92C U127A C129G G143A U151C] | ≤ -4.2
6 | GGAUCUUCUCGUUCUAACAAAAAAGACAAAUCUGCCACAAAGCUUGAGAGCAUCUUCGGAUGCAGAGGCGGCAGCCUUCGGUGGCGCGAUGGCGCCAACGUUCUCAACUAUGACACGCAAAACGCGUGCUCCGUUGAAUGGAGUUUAUCAUG [A12U A91G] | -2.26
7 | GGAUCUUCUCGUUCUAACAAAAAAGACAAAUCUGCCACAAAGCUUGAGAGCAUCUUCGGAUGCAGAGGCGGCAGCCUUCGGUGGCGCGAUUGCGCCAACGUUCUCAACUAUGACACGCAAAACGCGUGCUCCGUUGAAUGGAGUUUAUCAUG [A12U A91U] | ≤ -4.2
8 | GGAUCUUCUCGUUUUAACAAAAAAGACAAAUCUGCCACAAAGCUUGAGACCAUCUUCGGGUGCAGAGGCGGCAUCCUUCGGUGGUGCGAUAGCGCCAACGUUCUCAACUAUGACACGCAAAACGCGUGCUCCGUUGAAUGGAGUUUAUCAUG [A12U C14U G50C A60G G74U C85U] | ≤ -4.2
9 | GGAUCUUCUCGUUCUAACAAAAAAGACAAAUCUGCCACAAAGCUUGAGCGCAACUUCGGAUGCAGAGGCGGCAGCCUUCGGUGGUGCGAUAGCGCCAACGUUCUCAACUAUGACACGGAAAACGCGUGCUCCGUUGAAUGGAGUUUAUCAGG [A12U A49C U53A C85U C118G U151G] | ≤ -4.2
10 | GGAUCUUCUCGUUCUAACAAAAAAGACAAAUCUGCCACAAAGCUUGAGCGCAUCUUCGGAUGCAGAGGCGGCAGCCUUCGGUGGCGCGAUAGCGCCAACUUUCUCAACUAUGACACGCAAAACGCGUGCUCCGUUGAAUGGAGUUGAUCAUG [A12U A49C G100U U146G] | ≤ -4.2
11 | GGAUCUUCUCGUUCUAAGAAAAAAGACAAAUCUGCCACAAAGCUUGAGAGCAUCUUCGGAUGCAGAGGCGGCAGCCUUCGGUGGCGCGAUACCGCCAACGUUCUCAACUAUGACACGCAAAACGCGUGCUCCGUUGAAUGGAGUUUAUCAUG [A12U C18G G92C] | -2.01
12 | GGAUCUUCUCGUUCUAACAAAAGAGACAAAUCUGCCACAAAGCUUGAGAGCAUCUUCGGAUGCAGAGGCGGCAGCCUUCGGUGGCGUGAUAGCGCCAACGUUCUCAACUAUGACACGCAAAACGCGUGCUCCGUUGAAUGGAGUUUAUCAUG [A12U A23G C87U] | -3.67
13 | GGAUCUUCUCGUUAUAACAAAAAAGACAAAUCUGCCACAAAGCUUGAGAGCAUCUUCGGAUGCAGAGGCGGCAGCCUUCGGUGGGGCGAUAGCGCCAACGUUCUCAACUAUGACACGCAAAACGCGUGCUCCGUUGAAUGGAGUCUAUCAUG [A12U C14A C85G U145C] | -3.7
14 | GGAUCUUCUCGUUCUAACAAAAAAGACAAAUCUGACACAAAGCUUGAGAGCAUCUUCGGAUGCAGAGGCGGCAGCCUUUGGUGGCGCGAUAGCGCAAACGUUCUCAACUGUGACACGUAAAACGAGUGCUCCGUUGAAUGGAGUUUAUCAUG [A12U C35A C79U C96A A110G C118U C125A] | ≤ -4.2
15 | GGAUCUUCUCGUUCUAACAAAAAAGAAAAAUCUGCCACAAAGCUUGAGAGCCUCUUCGGAUGCAGAGGCGCCAGCCUUCGGUGGCGCGAUAGCGCCAACGUUCUUAACUAUGACACGCAAAACGCGUGCUCCGUUGAAUGGAGUUUAUCAUG [A12U C27A A52C G71C C105U] | ≤ -4.2
16 | GGAUCUUCUCGUUCUAACAAAACAGACAAAUCUGCCACAAAGCUUGAGAGCAUGGUCGGAUGCAGAGGCGGCAGCCUUAGGUUGCGCGAUAACGCCAACGUUCUCAACUAUGACACGCAAAACCCGUGCUCCGUUGAAUGGAGUAUAUCAUG [A12U A23C C54G U55G C79A G83U G92A G124C U145A] | ≤ -4.2
17 | GGAUCUUCUCGUUCUAACAAAAAAGACAAAUCUGGCACAAAGCUUAAGAGCAUCUUGGGCUGCAGAGGCGGCAGCCUUCGGUGGCGCGAUAUCGCCAACGUUCUCAAGUAUGACACGCAAAACGCGUGCUCCGUUGAAUGGAAUUUGUCAUG [A12U C35G G46A C57G A60C G92U C108G G143A A147G] | ≤ -4.2
18 | GGAUCUUCUCGUUCUAACAAAAAAGACAAAUCUGGCACAAAGCUUGAGAGCAUCUUCGGCAGCAGAGGCGGCAGCAUUCGGUGGCGCGAUAGCGCCAACGUUCUCAACUAUGACACGCAAAACUCGUGCUCCGUUGAAUGGAGUUUAUCAUG [A12U C35G A60C U61A C76A G124U] | ≤ -4.2
19 | GGAUCUUCUCGUUCUAACAAAAAAGCCAAAUCUGCUACAAAGCUUGAGAGCAUCUUCGGAUGCAGAGGCGGCAGCCUUCGGUGGCGCGAUAGCGCCAACGUUCUCAACUAUGACACGCAAAACGCGUGCUCCGUUGAAUGGAGUUUAUCAUG [A12U A26C C36U] | -3.95

Reference: the RNAGym collection of RNA variant scans (doi:10.1073/pnas.2313332121)
